Where a chain is given by its changes, count along the chain named. Read-outs that look alike come from different tables or passages of the source.
B1: 2V41-9GS (VHH)
chain: QLQLVESGGGSVQPGGSLRLSCEVSGRTFSSYTMGWFRQAPGKEREFVVAISKGGYKYDSVSLEARFTISKDNTKNTVYLQMNSLKPEDTAVYYCAGTRAYGSSRLRLAKTYEYWGQGTQVTVSSGGGGSGGGSQLQLVESGGGSVQPGGSLRLSCEVSGRTFSSYTMGWFRQAPGKEREFVVAISKGGYKYDSVSLEARFTISKDNTKNTVYLQMNSLKPEDTAVYYCAGTRAYGSSRLRLAKTYEYWGQGTQVTVSS
notes: Tandem bivalent nanobody
B2: 2V30-9GS (VHH)
chain: B1 chain with E44G, S60A, G97A, E178G, S194A, G231A
notes: Tandem bivalent nanobody
B3: 2V36-9GS (VHH)
chain: B1 chain with S30A, K110D, S164A, K244D
notes: Tandem bivalent nanobody
B4: 2V29-9GS (VHH)
chain: B1 chain with K110N, K244N
notes: Tandem bivalent nanobody
B5: 2V33-9GS (VHH)
chain: B1 chain with G97A, G231A
notes: Tandem bivalent nanobody
B6: 2V15-9GS (VHH)
chain: B1 chain with S30A, K110E, S164A, K244E
notes: Tandem bivalent nanobody
B7: 2V1-9GS (VHH)
chain: B1 chain with G97A, K110D, G231A, K244D
notes: Tandem bivalent nanobody
B8: V15 (VHH)
VHH: QLQLVESGGGSVQPGGSLRLSCEVSGRTFASYTMGWFRQAPGKEREFVVAISKGGYKYDSVSLEARFTISKDNTKNTVYLQMNSLKPEDTAVYYCAGTRAYGSSRLRLAETYEYWGQGTQVTVSS
notes: Monovalent nanobody; tag not described here, the ELISA detects a His tag

Key:
human VEGFA165 [1] = molecular target: T1, human VEGFA165 (human, UniProt P15692-4 27-191); assay: ELISA, coated human VEGFA165, anti-His detection
T1 construct: Bought protein from two suppliers, treated as one molecule; the supplier is named under assay; also called antigen VEGFA
Method: (§1) Antigen human VEGFA165 (label-free, purchased from Sino Biological, Cat. No.: HPLC-10008-HNAH, hereinafter referred to as VEGFA) was diluted with ELISA coating buffer to a final concentration of 0.3 μg/mL and added to a microplate at 100 μL/well for coating at 4° C. overnight. […] The solution used for antibody dilution was PBS containing 0.1% Tween-20 (pH 7.4), i.e., PBST. After being incubated at 37° C. for 1 h, the microplate was washed 3 times with PBST, and a dilution of His-Tag murine monoclonal antibody (purchased from Proteintech, Cat. No.: 66005-1-Ig) was added. The plate was further incubated at 37° C. for 1 h and washed again. Subsequently, a dilution of HRP-labeled goat anti-mouse IgG antibody (HRP-conjugated Affinipure Goat Anti-Mouse IgG (H+L), purchased from Proteintech, Cat. No.: SA00001-1) was added, and the plate was incubated at room temperature for 45 min. After the plate was washed, 100 μL of TMB (purchased from Tiangen Biotech, Cat. No.: PA107-01) was added to each well for color development at 37° C. for 15 min, followed by the addition of 50 μL of stopping solution. The absorbance at 450 nm (OD450) was measured using a microplate reader.

human VEGFA165 [2] = molecular target: T1, human VEGFA165; assay: competitive ELISA, coated VEGFA, competitor VEGFR2-ECD-Fc 1 nM
Method: (§2) Antigen VEGFA was diluted with ELISA coating buffer (final concentration of […]) and added to a 96-well microplate at 100 μL/well for coating at 4° C. overnight. […] The plate was incubated at 37° C. for 1 h and washed 3 times with PBST. Subsequently, a dilution of HRP-labeled goat anti-human IgG antibody (HRP-conjugated Goat Anti-Human IgG, purchased from Proteintech, Cat. No.: A21050) was added, and the plate was further incubated at room temperature for 45 min. After the plate was washed, 100 μL of TMB (purchased from Tiangen Biotech, Cat. No.: PA107-01) was added to each well for color development at 37° C. for 15 min, followed by the addition of 50 μL of stopping solution. The absorbance at 450 nm (OD450) was measured using a microplate reader.

human VEGFA165 [3] = molecular target: T1, human VEGFA165; assay: SPR Biacore 8K, VEGFA165 on CM5, nanobody analyte, 1:1 fit
Method: Using the Biacore 8K instrument (Cytiva), the antigen VEGFA165 (label-free, purchased from Sino Biological, Cat. No.: HPLC-10008-HNAH) as the ligand was coupled onto a CM5 chip through amino-coupling reagents (EDC and NHS), with the coupling level being about 400 RU. The mobile phase buffer was HBS-EP (0.01 M HEPES pH 7.4, 0.15 M NaCl, 3 mM EDTA, 0.005% v/v Tween 20) during the experiment. […] In the kinetic analysis, the binding time between the antigen and the antibody was 240 s, the dissociation time was 1500 s, and the flow rate was 30 μL/min. In a multi-cycle mode, the chip was regenerated with 100 mM hydrochloric acid.

human VEGFA165 [4] = molecular target: T1, human VEGFA165; assay: ELISA, coated human VEGFA165, anti-His detection; remark: listed apart in the source
Method: as §1

human VEGFA165 [5] = molecular target: T1, human VEGFA165; assay: competitive ELISA, coated VEGFA, competitor VEGFR2-ECD-Fc 1 nM; remark: listed apart in the source
human VEGFA165 [6] = molecular target: T1, human VEGFA165; assay: as above; remark: listed apart in the source
Method: as §2

human VEGFA165 [7] = molecular target: T1, human VEGFA165; assay: ELISA, coated human VEGFA165, anti-His detection; remark: listed apart in the source
Method: as §1
The experimental procedure was the same as that described in “2.

human VEGFA165 [8] = molecular target: T1, human VEGFA165; assay: ELISA, coated human VEGFA165, anti-His detection; remark: listed apart in the source
Method: as §1

T1 sequence (P15692 other isoform, or with tags, fused parts or gaps limits assumed): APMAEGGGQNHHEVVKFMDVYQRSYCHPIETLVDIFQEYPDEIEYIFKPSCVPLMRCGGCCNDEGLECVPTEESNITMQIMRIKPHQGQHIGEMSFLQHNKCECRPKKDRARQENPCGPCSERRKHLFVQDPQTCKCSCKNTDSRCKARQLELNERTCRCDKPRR

| Binder | EC50 (human VEGFA165 [1]) [nM] | IC50 (human VEGFA165 [2]) [nM] | EC50 (human VEGFA165 [7]) [nM] | further results |
| --- | --- | --- | --- | --- |
| B1 | 0.27 | 1.97 |  |  |
| B2 | 0.25 | 1.41 |  | Kd (human VEGFA165 [3]): 0.0222 nM; koff (human VEGFA165 [3]): 9.29e-05 s⁻¹; kon (human VEGFA165 [3]): 4.18e+06 M⁻¹ s⁻¹ |
| B3 | 0.3 | 3 |  |  |
| B4 | 0.31 | 1.77 |  |  |
| B5 | 0.32 | 3.48 |  |  |
| B6 | 0.24 | 2.07 | 0.24 | EC50 (human VEGFA165 [4]): 0.25 nM; IC50 (human VEGFA165 [5]): 3.13 nM; Maximum inhibition rate (%) (human VEGFA165 [5]): 88.4%; IC50 (human VEGFA165 [6]): 3.61 nM; EC50 (human VEGFA165 [8]): 0.22 nM |
| B7 | 0.09 | 2.97 | 0.09 | Kd (human VEGFA165 [3]): 0.0224 nM; koff (human VEGFA165 [3]): 5.05e-05 s⁻¹; kon (human VEGFA165 [3]): 2.25e+06 M⁻¹ s⁻¹ |
| B8 |  |  | 1 | IC50 (human VEGFA165 [6]): 6.65 nM |

From US20260234232A1 (QUAERITE BIOPHARM RESEARCH BEIJING, published 2026)
